The source of these data is publication PMC6662615 (Biochemistry, 2019).

The series concerns the molecule itself. In words: dynamic light scattering.

B1: recombinant human αB-crystallin (natural protein, UniProt P02511 1-175, looked up)
chain: MDIAIHHPWIRRPFFPFHSPSRLFDQFFGEHLLESDLFPTSTSLSPFYLRPPSFLRAPSWFDTGLSEMRLEKDRFSVNLDVKHFSPEELKVKVLGDVIEVHGKHEERQDEHGFISREFHRKYRIPADVDPLTITSSLSSDGVLTVNGPRKQVSGPERTIPITREEKPAVTAAPKK
Turning to B1, the binding result is “binds”.
